# From the nanobody polyreactivity screen of Harvey et al. (2022)
# Assay: yeast display, Sf9 membrane polyspecificity reagent, FACS + sequencing; frameworks hold sequencing errors
# Method in brief: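 A nanobody's polyreactivity label depends on the gate it was sorted from. Yeast display cells were stained with 10% biotinylated, detergent-solubilized Sf9 membrane reagent for 1 hour at 4 °C, enriched on streptavidin microbeads and sorted by FACS. The low and high (top ~1%) gates were set on anti-HA fluorescence for expression and streptavidin fluorescence for reagent binding.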
row,Sequence,polyreactivity (PSR sort gate)
1,QVQLVESGGGLVQAGGSLRLSCAASGFIFYVYAMGWYRQAPGKERELVAAISADGGITYYADSVKGRFTISRDNAKNTVYLQMNSLKPEDTAVYYCNTLGDQDAYAGFRLDYWVQGTQVTVSS,low polyreactivity
2,QVQLVESGGGLVQAGRSHRLTCAASGSTDSNAMGWYRQAPGKERELVAAISGTGSRTYYADSVKGRFTISRDNAKNSVYLEMNSLKPEDTAVYYCAASPDVSFRRFSLVVSGDYWGQGNQVTVSS,high polyreactivity
3,QVQIVESGGGLVQAGGSLRLSGAASGRTFRPYTMGWYRPAPGKERELVARITSGGSTNYADSVKWRFTISRDNAKITVYLQMNSLKPEDTAVYYCNKPGYRLRLDDDYWGQGTQVTVSS,low polyreactivity
4,QVQLVESGGGLVQAGGSLRLSCAASGRILEGYSMGWYRQAPGKERELVAAISFSTTTTYYADSVKGRFTISRDNAKNTVYVQMNILKPEDTAVYYCAADSQQSDYDYWGQGTQVTVSS,high polyreactivity
5,QVQLVESGGGLVQAGGSLRISCAPSGITLRRNAMGRYRQAPGKERELVARISTTGGSTYYADSVKGRFTISRDNAKNTVYLQMNSLKPEDTAVYYCAARAPLGFWHYDYWGQGTQVTVSS,high polyreactivity
6,QVQLVESGGGLVQAGGSLRLSCAASGRIFYDNAMGWYRQAPGKERELVAAISYSGDSTYYADSVKGRFTISRDNAKNTVYVQMNSLKPEDTAVYYCAAVYISQGAFAYDYWGQGTQVTVSS,low polyreactivity
7,QVQLQESGGGLVQAGGSLRLSCAASGNIYDADIMGWYRQAPGKERELVTSITDGGSTNYADSVKGRFTISRDNAKNTVYLQMNSLKPEDTAVYYSAAIAYPDIPTSFDYNSDYSYWGQGTQVTVSS,low polyreactivity
8,QVQLVESGGGLVQAGGSLRLSCAASGSTLLWNTMGWYRQAPGKERELVAAISITGSTNYADSVKGRFTISRDNEKNTVYLQMNSLKPEDTAVYYCAAPYGLPWWYGSWGQGTQVTVSS,low polyreactivity
9,QVQLVESGGGLVQAGGSLRISCAASGGTFHRYAMGWYRQAPGKERELVAAISGSGASTYYADSVKGRFTISRDNAKNTVYLQMNSLKPEDTAVYYCNAYYYPYWYRYYYWGQGTQVTVSS,high polyreactivity
10,QVQLVESGGGLVQAGGSLRLSCAASGLTFYQYAMGWYRQAPGKERELVAAISQSAGSTYYADSVKGRFTISRDNAKNTVYLQMNSLKPEDTAVYYCAARVLRLRYDYWGQGTQVTVSS,high polyreactivity
11,QVQLVESGGGLVQAGGSLRLSCAAYGRTISRNTMAWYRQAPGKERELVAGITYGGDRTYYADSVKGRFTISRDNAKNTVYLQMNSLKPEDTSVYYCAAPWYWKGLRDYWGQGTQVTVSS,low polyreactivity
12,QVQLVESGGGLVQAGGSLRLSCAASGGIFVTYTMGWYRQAPGKERELVAGINSRSGSTYADSVKGRFTISRDNAKNTVYLQMNSLKLEDTAVYYCAADRIDLGRASRYGYWGQGTQVTVSS,low polyreactivity
13,QVQLVESGGGLVQAGGSLRLSCAASGLTFYSYAMGWYSPAPGKERELVAAITSSGSITYYADSVKGRFTISRDNAKNTVYLQMNSLKPEDTAVYYCAARPYRVRGQRFEGNYWGQGTQVTVSS,high polyreactivity
14,QVQLVESGGGLVQAGGSLRLSCAASGSIFLTYTMGWYRQAPGKERELVAGISSRGGGTYYADSVKGRFTISRDNAKNTVYLQMNSLKPEDTAVYYCAAAIGYPHYWGRRKFYYWGQGTQVTVSS,low polyreactivity
15,QVQLVESGGGLVQAGGSLRLSCADSGFTFYFYAMGWYRQAPGKEREFIATINFISGSTYYADSVKGGVTISRDNAKNTVYLQMNSLKPEDTAVYYCNKPFPYYPDGPNGYDYWGQGTQVTVSS,low polyreactivity
16,QVQLVESGGGLVQAGGSLRLSCAASGSIIGLYVMGWYRQAPGKERELVAAISWSGGSTYYADSVKGRFTISRDNAKNTVYLQMNSLKPEDTAVYYCAARVYSVADYYYWGQGTQVTVSS,low polyreactivity
17,QVQLVESGGGLVQAGGSLRLSCAASGRTFLPYAMGWYRQAPGKEWELVAAIDSSGGSTYYADSVKGRFTISRDNAKNTVYLQMNSLKPEDTAVYYCAADLYSSYYLYDSWGQGTQVTVSS,low polyreactivity
18,QVQLVESGRGLVQAGGSLRLSCAASGFTFGYYAMGWYRQAPGKERELVAAISASGASTYYADSVKGRFTISRDNAKNTVYLQMTSLKPEDTAVYYCAARPGQLTSPVTRTRYNYWGQGTQVTVSS,low polyreactivity
19,QVQLVESGGGLVQAGGSLRLSCAASGRTYHAYAMGWYRQAPGKGRELVAAITRTGTTHYADSVKGRFTISRDNAKNTVYLQMTSLKPEDTAVYYCAAQHVRVDAQFVLQGYDYWGQGTQVTVSS,low polyreactivity
20,QVQLVDSGGGLVQAGGSLRLICDASGFIFFAYAMGWYRQAPGKERELVAVITSGGGTNYADSVKGRFTFSRDNAKNTVYLQMTSLKPEDTAVYYCNADYFFASTEFYYWGQGTQVTVSS,low polyreactivity
21,QVQLEESCGGLVQAGGSLRLSCAASGPIIRAYAMGWYRQAPGKERELVAAITRSGGSTYYADSVKGRFTISLDNAKNTVYLQMNSLKPEDTAVYYCNARTRYDDGYDSWGQGTQVTVSS,high polyreactivity
22,QVQHVESGGGLVQAGGSLRLSCAASGIIFDGNVMGWDRQAPGKEREFVASISISGGSTSYADSVKGRFTISRDNAKNTVYLQMNSLKPEDTAVYYCNTDVGYGRVCRWRYHGDYWGQGTQVTVSS,low polyreactivity

row,Sequence,polyreactivity (PSR sort gate)
1,QVQLVESGGGLVQAGGSLRLSCAASGSLFYNNAKGWYRQAPGKERELVAAIRSTGTRTYYADSVKGRFTISRDTAKNTVYLQMNSLKPEDTAVYYCAVGDYGLWSYDYWGQGSQVTVSS,low polyreactivity
2,QVKLVESGGGLVQAGGSLRLSCAASGSTINLYDMGSYIQAPGKERELVADISRGGSTNYADSVKGRFTITRDNAKNTVYLQMNSLIPEDTAVYYCAAFYFTYDFWTYSFAEYDYWGQGTQVTVSS,high polyreactivity
3,QVQLVESGGGLVQAGGSLRLICAASGIILAYAMGWYRQAPGKERELVAAISGRAGSTYYADSVKGRFTISRDNAKNTVYLHMNSLTPEDTAVYYCAKRISYLPVEMDYWGQGTQVTVSS,low polyreactivity
4,QVKRVESGGVLVQAGGSLRLSCAASGFIFLLNDMGWYRQAHGKERDLVAAISRGGGSTYYADSVKGRFTISRDNAKNTVYLQMNSLKPEDTAVYYCAAKPGKTPLTGHRGPYDTGYGYCGQGTQVTVSS,low polyreactivity
5,QVQLVESGGGLVQAGGSLRLSCAASGRIFEDYAMGWYRQAPGKERELVARISSGDSTNYADSVKGRFTISRDNAKNTVYLQMNSLKPEDTAVYYCNADRGDLYELRGSGYLDGYWGQGTQVTVSS,low polyreactivity
6,QVQLVESGGGLVQAGGSLRLSCAASGRTGVNAMGWYRQAPGKERELVAAINNGDSTYYADSVKGRFTISRDNAKKTVYLQMNSLNPEDTAVYYCAAGLDEGDYWQESDYWGQGTQVTVSS,low polyreactivity
7,QVQLVESGGGLVQAGGSLRLSCAASGRIFWRNALGWYRQAPGKERELVAAITYSGGSTYYADSVKGRFTISRDNAKNTVYVQMNSLNPEDTAVYYCNTVEGWRYYGQSLYAYYYWGQGTQVTVSS,high polyreactivity
8,QVQLVESGGGLVQAGGRLRLSCAATGRTFGRNAMGWYRQAPGKERELVAAINGNGGRTYYADSVKGRFTISRDNAKNTVYLQMNSLKPEDTAVYYCAADLRRSDYDYWGQGTKVTVSS,high polyreactivity
9,QVQLVESGGGLVQAGGSLRLSCAASGGIFAPYAMGWYRQAPGKERELVAAISSSDGSTYYADSVKGSFTISRDNAKNTVYLQMNSLKPEDTAVYYCAADYREDYGYWGQGTQVTVSS,low polyreactivity
10,QVQLVESGGGLVQAGGSLRLSCAASGRIFSYYAMGWYRQAPGKERELVAAITSAGGTNYADSVKGRFTISRDNAKNTVYLQMNSLNPEDTAVYYCAAAKRDFVEYDYWGQGTQVTVSS,low polyreactivity
11,QVQLVESGGGLVQAGGSLRLSCAASGFTFSNYAMGWYRQAPGKERELVAAISWSGGSTYYADSVKGRFTISRDNAKNTVYLQMNSLKPEDTAVYYCNVLARPPYYKTRVNSPRSDYWGQGTQVTVSS,high polyreactivity
12,QVQLVESGGGLVQAGGSLRLSSAASGYTFSRNAMGWYRQAPGKERELVASISSRGGSTRYADSVKGRFTISRDNAKYTVYLQMNSLKPEDTAVYYCAVRGLYSPFTYGYWGQGTQVTVSS,high polyreactivity
13,QVQLVESGGGLVQPGGSLRLSCAASGSIFGYNAMGWYRPAPGKERELVAVITRSDGSTYYADSVKGRFTISRDNAKNTVYLQMNSLKPEDTAVYYCNAETHVYYWGVVIYEYNYWGQGTQVTVSS,low polyreactivity
14,QVQLVESGGGLVQAGGSLRLSCAASGRIFYGYTMGWARQAPGKERQLVAAITWSGGSTYYADSVKGRFTISRDNAKYSVYLQMNSLKPKDTAVYYCAATLGNAADYDYGYWGQGTQVTVSS,high polyreactivity
15,QVQLVESGGGLVQAGGSLRLSCAASGNILWFNAMGWYRQAPGKERELVASISSSGGRTYYADSVKGRFTISRDNAKNTVYLQMNSLKPEDTAVYYCAAEYYYGWTYSGGLGFLGYNYWGQGTQVTVSS,low polyreactivity
16,QVQLVESGGGLVQAGGSLRISCAASGFTFRKYTMGWYRQAPGKERELVAAISRRGGSTYYADSVKGRFTISRDNAKNTVYFQMNSLKPEVTAVYYCATDHIPSVGVDYWGQGTQVTVSS,high polyreactivity
17,QVQLVESGGGLVQAGGSLRLSCAASGSTFDVNTMGWYRQAPGKERELVAAIRLRGGSTYYADSVKGRFTISRDNAKNTVYLQMYSLKPEDTEVSYCAADYTLIYDYWGQGTQVTVSS,low polyreactivity
18,QVQLVESGGGLVQAGGSLRLSCAASGRTFGINAMGWYRQAPGKETELVAVISFGDGGTYYADSVKGRFTISRDNAKNTVYLQMNSLTPEDTAVYYCATDYQSTSVWGGHFVINPYDYWGQGTQVTVSS,low polyreactivity
19,QVQLVESGGGLVQAGGSLRLSCAASVRIFSINAMGWYRQAPGKERELVAAINSGGSTHYADSVKGRFTISRDNAKNTVYLQMNSLKPEDTAGYYCAARKTVSYFRVRTFDYWGQGTQVTVSS,low polyreactivity
20,QDQLVESRGGLVQAGGSLRLSCAASGRIFGYNAMGWYTQAPGKERELVAGITSVGRTYYADSVKGRFTISRDNAKNTVYLQMNSLKPEDTAVYYCNAASYSLAVTAEYEDMDYWGQGTQVTVTS,low polyreactivity
21,QVQLVESGGGLVQAGGSLRLSCAASGRIIGNYAMGWYRQAPGKERELVAAISNGGSTNYADSVKGRFTISRDNAKNTVYLQMNSLKPEDTAVYYCNADQWAVIWGYMVLDFYYWGQGTQVTVSS,low polyreactivity
